From patent publication US20180015176A1 (Bayer, published 2018) come the findings set out here.

This assay has as its target T1, TPP-599 (HUMAN-TNFRSF12Aaa28-80-hIgG1-Fc) (human, biotinylated with Biotin-LC-NHS (about 2-fold molar excess)).
T1 construct: Dimeric Fc-fused extracellular domain of human TWEAKR, used biotinylated in the panning and the Fab ELISA; also called TWEAKR Fc; TWEAKR-Fc
Briefly: ELISA, soluble Fab on 2.5 nM biotinylated TWEAKR-Fc, anti-c-myc detection. How it is done:
Affinity maturation was carried out by phage panning. Washed magnetic beads (DynaBeads) were incubated at 4° C. with 10 nM, 1 nM, 100 pM and 10 pM of biotinylated human antigen overnight and blocked with blocking buffer (PBS with 3% BSA, 0.05% Tween-20) at 4° C. for 1 h. The blocked Fab phage library was added to the blocked TWEAKR DynaBeads at 10 000-fold, 1000-fold and 100-fold excess, compared to the theoretical library complexity, and incubated at room temperature for 30 min. Thus, 12 strategies in total were followed (4 antigen concentrations×3 Fab phage titers). […] For the expression of soluble Fab, the phagemide vector was digested with MluI to remove the gene III-membrane anchor sequence required for Fab display on the phage, and ligated again. 96 variants of each of the 12 selection pools were expressed as soluble Fabs and examined in an ELISA format. […] For efficacy maturation, HEK293 cells were transfected with an NF-kappaB reporter (BioCat, Cat. No. LR-0051-PA). Transfected cells were sown in F17 media (serum-free; Invitrogen) in white polylysine-coated 384-well plates (BD), and individual variants of the NNK-diversified position antibody (human IgG1) libraries were expressed transiently in mammalian cells. The next day, NF-kappaB reporter cells were stimulated with the expressed single-NNK antibody variants for 6 h, and a luciferase assay was then carried out by standard methods.
In general terms: An ELISA detects its analyte on a solid surface through an enzyme-linked reagent.

B1: TPP-883 single-substitution variant A51Q of CDR-L2 (soluble Fab) (Fab, V domains shown)
VH: EVQLLESGGGLVQPGGSLRLSCAASGFTFSPYPMMWVRQAPGKGLEWVSYISPSGGKTHYADSVKGRFTISRDNSKNTLYLQMNSLRAEDTAVYYCARGGDGYFDYFDYWGQGTLVTVSS
VL: DIQMTQSPATLSASVGDRVTITCRASQSISSYLNWYQQKPGKAPKLLIYQASSLQSGVPSRFSGSGSGTDFTLTISSLQPEDFATYYCQQSYSSPGITFGPGTKVEIK
notes: Soluble Fab
In the case of B1, the binding result is given as “binds”.

B2: TPP-883 single-substitution variant M35I of CDR-H1 (soluble Fab) (Fab, V domains shown)
VH: EVQLLESGGGLVQPGGSLRLSCAASGFTFSPYPMIWVRQAPGKGLEWVSYISPSGGKTHYADSVKGRFTISRDNSKNTLYLQMNSLRAEDTAVYYCARGGDGYFDYFDYWGQGTLVTVSS
VL: DIQMTQSPATLSASVGDRVTITCRASQSISSYLNWYQQKPGKAPKLLIYAASSLQSGVPSRFSGSGSGTDFTLTISSLQPEDFATYYCQQSYSSPGITFGPGTKVEIK
notes: Soluble Fab; also called M351
B2: the binding result was “binds”.

B3: TPP-883 single-substitution variant G102T of CDR-H3 (soluble Fab) (Fab, V domains shown)
VH: EVQLLESGGGLVQPGGSLRLSCAASGFTFSPYPMMWVRQAPGKGLEWVSYISPSGGKTHYADSVKGRFTISRDNSKNTLYLQMNSLRAEDTAVYYCARGGDTYFDYFDYWGQGTLVTVSS
VL: DIQMTQSPATLSASVGDRVTITCRASQSISSYLNWYQQKPGKAPKLLIYAASSLQSGVPSRFSGSGSGTDFTLTISSLQPEDFATYYCQQSYSSPGITFGPGTKVEIK
notes: Soluble Fab; also called best single-substitution variant G102T
Take B3: the binding result is “binds”.

B4: TPP-883 single-substitution variant G97F of CDR-L3 (soluble Fab) (Fab, V domains shown)
VH: EVQLLESGGGLVQPGGSLRLSCAASGFTFSPYPMMWVRQAPGKGLEWVSYISPSGGKTHYADSVKGRFTISRDNSKNTLYLQMNSLRAEDTAVYYCARGGDGYFDYFDYWGQGTLVTVSS
VL: DIQMTQSPATLSASVGDRVTITCRASQSISSYLNWYQQKPGKAPKLLIYAASSLQSGVPSRFSGSGSGTDFTLTISSLQPEDFATYYCQQSYSSPFITFGPGTKVEIK
notes: Soluble Fab
Regarding B4, the binding result is on record as “binds”.
